A word on the Kd: it is the concentration at which binding is half-saturated. Lower therefore signals tighter binding.

Our source for the Kd values is article doi:10.1101/433839.

The target of one experiment is Y118A SsuE (UniProt P80644). Put plainly: other fluorescence titration.
In experiment [1] the target is wild-type SsuE (NADPH-dependent FMN reductase of the alkanesulfonate monooxygenase system) (UniProt P80644). The experiment is described as follows: other fluorescence titration.

B1: wild-type SsuD (FMNH2-dependent alkanesulfonate monooxygenase) (enzyme)
chain: MSLNMFWFLPTHGDGHYLGTEEGSRPVDHGYLQQIAQAADRLGYTGVLIPTGRSCEDAWLVAASMIPVTQRLKFLVALRPSVTSPTVAARQAATLDRLSNGRALFNLVTGSDPQELAGDGVFLDHSERYEASAEFTQVWRRLLQRETVDFNGKHIHVRGAKLLFPAIQQPYPPLYFGGSSDVAQELAAEQVDLYLTWGEPPELVKEKIEQVRAKAAAHGRKIRFGIRLHVIVRETNDEAWQAAERLISHLDDETIAKAQAAFARTDSVGQQRMAALHNGKRDNLEISPNLWAGVGLVRGGAGTALVGDGPTVAARINEYAALGIDSFVLSGYPHLEEAYRVGELLFPLLDVAIPEIPQPQPLNPQGEAVANDFIPRKVAQS
B1: the values for the dissociation constant (Kd) (with Y118A SsuE; in experiment [1]) were 122 nM and 40 nM, respectively.
